The subject of experiment [1] is BxPC-3 pancreatic cancer cell line. In words: Cell cycle analysis by flow cytometry. Type of experiment: cell-based. Conditions: BxPC-3, expression induced by doxycycline for 4 days. An excerpt:
(§1) FIG. 5. Micropeptide of sequence SEQ ID NO: 1 overexpression induces cell cycle arrest and cellular senescence. BxPC-3 cells were transduced with an inducible lentivirus coding HA-SEQ ID NO: 1. Micropeptide of sequence SEQ ID NO: 1 expression was induced by doxycycline treatment for 4 days. (A) Phase contrast images of SEQ ID NO:1-expressing cells and control cells. (B) Cell viability analysis by CellTiter-Glo assay. (C) Cell cycle analysis by flow cytometry. Left, histogram plots. Right, quantification of the number of cells in every cell cycle phase (D) Analysis of p27 and p21 expression by qPCR. (E) Western Blot of the indicated cells using anti-HA and anti-p21 antibodies. (F) Quantification of the number of SA-β-Gal positive cells in doxycycline-treated and untreated cells. (G) Representative pictures of the cell quantified in (F). Graphs show the mean±SEM, using at least 3 technical replicates. **P<0.01 ***P<0,001 **** P<0.0001, two-tailed t-test.
(§2) Micropeptide of SEQ ID NO: 1 expression was induced in BxPC3 cells by treatment with doxycycline (2 μg/ml) for 4 days. Cells were fixed using 100% ethanol at 4° C., stained with Propidium Iodide, and cell cycle was analysed by flow cytometry (LSR-Fortessa cytometer). Cell viability in micropeptide of SEQ ID NO: 1-expressing cells was evaluated using CellTiter-Glo 2.0 (Promega) following manufacturer's instructions.
(Flow cytometry measures light scatter and fluorescence of single cells or particles in a stream.)

The test system of experiment [2] is CDK inhibitors p27 and p21. In words: p27 and p21 expression by qPCR and Western Blot in BxPC-3. The class given is cell-based. Conditions: BxPC-3, doxycycline-induced expression.
Text: as §1
Total RNA was extracted with Trizol® and treated with TURBO™ DNase following provider's recommendations. 1 μg of RNA was retrotranscribed using iScript™ cDNA Synthesis Kit (BioRad). Gene expression was analysed by quantitative real time PCR using PowerUp SYBR Green Master Mix (Thermo Fisher Scientific) in the 7900HT Fast Real-Time PCR System (Applied Biosystems). Cycle threshold (Ct) values were normalized to GAPDH. […]

Experiment [3] has as its system BxPC-3 cells. The experiment can be described thus: SA-β-gal staining assay. The class given is cell-based. Conditions: BxPC-3, doxycycline-treated vs untreated.
Text: as §1
For SA-β-gal staining, cells were fixed and stained using a commercial senescence β-galactosidase staining kit (Cell Signalling) following manufacture's protocol.

Experiment [4] concerns BxPC-3 cells. In words: Drug sensitivity assay, cell viability by crystal violet. Type of experiment: cell-based. More on the design: cell death induced by Doxorubicin: dose or concentration left out as unconfirmed. Conditions: days 2 to 4. As for the experimental part:
FIG. 6. Micropeptide of sequence SEQ ID NO: 1 expression induces cell death upon cellularstress. SkBR-3, HPAF II, MIA PaCa-2 and BxPC-3 cells were infected with empty or SEQ ID NO: 1-HA retroviruses, and selected by puromycin. Micropeptide of sequence SEQ ID NO: 1 expression was analyzed by qPCR (A) and by Western blot (B). (C) Phase contrast images of the indicated cells 3 days after selection with puromycin. […] (E) BXPC-3 cells were infected with an inducible lentivirus encoding SEQ ID NO: 1-HA, and selected with Neomycin. Micropeptide of sequence SEQ ID NO: 1 expression was induced by doxycycline, and cells were treated with Doxorubicin or Actinomycin D. (E) Cell viability of the indicated cells measured by crystal violet staining. For drug sensitivity assays, doxycycline induction was coupled with Doxorubicin ([…]) or Actinomycin D (5 nM) (from days 2 to 4), and cell viability was measured by staining with crystal violet.

The test system of experiment [5] is Lung cancer cell line A549. The experiment can be described thus: Cell proliferation assay (growth curve, 14 days). Type of experiment: cell-based, human. Conditions: A549, monitored for 14 days, vs control vector. An excerpt: (§3) FIG. 8. SEQ ID NO: 1 overexpression reduces cell proliferation. A549 and H10 cells were transduced with an inducible lentivirus coding HA-SEQ ID NO: 1. SEQ ID NO: 1 expression was induced by doxycycline treatment for 14 days. (A) Growth curve of transduced cells over 14 days of SEQ ID NO:1 expression. (B) Cell cycle analysis by flow cytometry. Left, histogram plots. Right, quantification of the number of cells in every cell cycle phase. Graphs show the mean±SD, using at least 3 technical replicates. **** P<0.0001, two-tailed t-test.
A549 and H10 cell lines were dissociated by trypsin digestion and seeded into 24-well cell culture plates at density 5×10^3 cells/well. Every two days, cells were dissociated from wells and counted using a Neubauer chamber. Cell growth curves were monitored for 14 days.

For experiment [6], the system named is A549 cells. The experiment can be described thus: Cell cycle analysis by flow cytometry. Type of experiment: cell-based, human.
Text: as §3, §2

Experiment [7] relates to H10 cancer cells. The experiment can be described thus: Invasion assay (Boyden chamber, Matrigel). The class given is cell-based. Conditions: H10, after 4 days of doxycycline induction, 24 h invasion. As to the method:
(§4) FIG. 9. SEQ ID NO: 1 overexpression impairs invasiveness and reduces mesenchymal traits in A549 and H10 cell lines. Invasion of indicated cells was analyzed in matrigel-coated inserts. (A) The undersides of membrane inserts containing invaded cells were fixed and stained with crystal violet and photographed 24 h after plating. (B) Number of invasive cells was calculated using ImageJ software. Bars plots show relative number of cells invading the chamber. (C) Analysis of several mesenchymal genes by qPCR. mRNA expression is shown relative to the control. * P<0.05, **P<0.01 two-tailed t-test.
BxPC-3, MDA-MB-231, A549 and H10 cell lines were trypsinized, counted, and 20.000 cells/well were seeded in triplicate in a Corning® cell culture insert (Boyden chamber) in which the porous membrane is coated with a layer of Matrigel® to mimic an extra cellular matrix (ECM). Cells were allowed to invade through the coated membrane for 24 hours in the cell incubator at 37° C. After the incubation time, culture inserts were fixed in methanol 5 minutes at RT and stained using Crystal Violet 20 minutes at RT. The excess of Crystal Violet staining was removed washing with PBS and pictures of the chambers were taken using an Olympus CeIIR microscope. Invading cells were counted using ImageJ and fold change was calculated normalizing to the control.

Experiment [8] has as its system EMT regulators VIMENTIN, SLUG, SNAIL, N-CADHERIN, TWIST1, TWIST2, ZEB1 and ZEB2. The experiment can be described thus: Mesenchymal gene expression by qPCR in H10 SCC cell line. Type of experiment: cell-based. As to the method: as §4
Total RNA was extracted with Trizol® and treated with TURBO™ DNase following provider's recommendations. 1 μg of RNA was retrotranscribed using iScript™ cDNA Synthesis Kit (BioRad). Gene expression was analysed by quantitative real time PCR using PowerUp SYBR Green Master Mix (Thermo Fisher Scientific) in the 7900HT Fast Real-Time PCR System (Applied Biosystems). Cycle threshold (Ct) values were normalized to GAPDH.

B1: SEQ ID NO: 1: highly conserved 87 aa micropeptide coded by the lncRNA TINCR; predicted ubiquitin-like protein (protein, listed as Homo sapiens)
chain: MEGLRRGLSRWKRYHIKVHLADEALLLPLTVRPRDTLSDLRAQLVGQGVSSWKRAFYYNARRLDDHQTVRDARLQDGSVLLLVSDPR
With B1, the cell cycle entry in experiment [1] was “induces cell cycle arrest in G1 phase”. Besides, the “expression of the CDK inhibitors p27 and p21” value in experiment [2] is on record as “upregulation”. In addition, the “number of senescent cells (SA-β-Gal-positive cells)” value in experiment [3] is “increase”. Further, the “cell death induced by Actinomycin D” value in experiment [4] (BxPC-3, doxycycline induction coupled with Actinomycin D (5 nM)) is “sensitizes to cell death”. For the same molecule, the “cell death induced by Doxorubicin” value in experiment [4] (BxPC-3, doxycycline induction coupled with Doxorubicin) was “sensitizes to cell death”. In addition, the growth rate entry in experiment [5] was “consistently lower growth rate”. In addition, the “cells arrested in G1 phase” value in experiment [6] is given as “increase in cells arrested in G1 phase”. Besides, the invasion result in experiment [7] is “significant decrease in invasion”. Further, in experiment [8], the “expression of the EMT regulators VIMENTIN, SLUG, SNAIL, N-CADHERIN, TWIST1, TWIST2, ZEB1 and ZEB2” value is reported as “represses the expression”.

These data come from patent publication US11858972B2, “Micropeptides and uses thereof” (FUNDACIÓ PRIVADA INSTITUT D'INVESTIGACIÓ ONCOLÒGICA DE VALL …, priority 2018, dated 2024).
